Reference: patent publication US20230059489A1
Changes are numbered by the printed parent chain.

B1: P4H11 (scFv format) (scFv, part only; not given: linker, domain order, tags, V domains shown, not shown: another chain or arm of the molecule; small tags and cut ends)
VH: EVQLLESGGGLVQPGGSLRLSCAASGFTFSSYAMNWVRQAPGKGLEWVSSISGGGRSTYYADSVKGRFTISRDNSKNTLYLQMNSLRAEDTAVYYCARDLSPSDVGWGYGFDIWGQGTLVTVSS
VL: EIVLTQSPGTLSLSPGERATLSCRASQSVSNTYLAWYQQKPGQAPRLLIYDTSSRATGIPDRFSGSGSGTDFTLTISRLEPEDFAVYYCQQYGSSLTFGQGTKVEIK
B2: P4C7 (scFv format) (scFv, part only; not given: linker, domain order, tags, V domains shown, not shown: another chain or arm of the molecule; small tags and cut ends)
VH: QVQLVQSGAEVKKPGSSVKVSCKASGGTFSSYTISWVRQAPGQGLEWMGGIIPAFGIANYAQKFQGRVTITADKSTSTAYMELSSLRSEDTAVYYCAKGGSYSLDYFDIWGQGTLVTVSS
VL: B1 VL with S28Y, N31A, T32S, Y33L, D51G, T52A, S54T, G93A, S94R, L96S
B3: P1B4 (scFv format) (scFv, part only; not given: linker, domain order, tags, V domains shown, not shown: another chain or arm of the molecule; small tags and cut ends)
VH: QVQLVQSGAEVKKPGSSVKVSCKASGGVFSRYALSWVRQAPGQGLEWMGGIIPMLGFANYAQKFQGRVTITADESTSTAYMELSSLRSEDTAVYYCATLDFGALDYWGQGTLVTVSS
VL: EIVLTQSPGTLSLSPGERATLSCRASQSVPNEQLAWYQQKPGQAPRLLIYDASSRATGIPDRFSGSGSGTDFTLTISRLEPEDFAVYYCQQYGSPPLTFGQGTKVEIK
B4: P1A5 (scFv format) (scFv, part only; not given: linker, domain order, tags, V domains shown, not shown: another chain or arm of the molecule; small tags and cut ends)
VH: B3 VH
VL: EIVLTQSPGTLSLSPGERATLSCRASQAVDSSDLAWYQQKPGQAPRLLIYDAYTRPSGIPDRFSGSGSGTDFTLTISRLEPEDFAVYYCQQYGSSPLTFGGGTKLEIK
B5: P3E10 (scFv format) (scFv, part only; not given: linker, domain order, tags, V domains shown, not shown: another chain or arm of the molecule; small tags and cut ends)
VH: QVQLVQSGAEVKKPGSSVKVSCKASGGTFSSYAIQWVRQAPGQGLEWMGGIVGSWGLANYAQKFQGRVTITTDKSTSTAYMELSSLRSEDTAVYYCATSAFGELASWGQGTLVTVSS
VL: B3 VL with N31S, E32S, P95S
B6: P9F1 (scFv format) (scFv, part only; not given: linker, domain order, tags, V domains shown, not shown: another chain or arm of the molecule; small tags and cut ends)
VH: EVQLLESGGGLVQPGGSLRLSCAASGFIFSSFAMSWVRQAPGKGLEWVSDISGSGASTYYADSVKGRFTISRDNSKNTLYLQMNSLRAEDTAVYYCASASGGSGSYWPYMDPWGQGTLVTVSS
VL: QSVLTQPPSASGTPGQRVTISCSGSGSNIGSNYVYWYQQLPGTAPKLLIYRNNQRPSGVPDRFSGSKSGTSASLAISGLRSEDEADYYCAAWDGSLSRPVFGTGTKLTVL
B7: P5F7 (scFv format) (scFv, from a related filing, part only)
scFv: EVQLLESGGGLVQPGGSLRLSCAASGFTFSSYAMNWVRQAPGKGLEWVSSISGGGRSTYYADSVKGRFTISRDNSKNTLYLQMNSLRAEDTAVYYCARDLSPSDVGWGYGFDIWGQGTLVTVSSGGGGSGGGGSGGGGSEIVLTQSPATLSLSPGERATLSCRASQSVSSNLAWYQQKPGQAPRLLIYDTFTRATGIPARFSGSGSGTDFTLTISRLEPEDFAVYYCQQYGSSPPTFGQGTRLEIK
B8: P7H3 (scFv format) (scFv, part only; not given: linker, domain order, tags, V domains shown, not shown: another chain or arm of the molecule; small tags and cut ends)
VH: EVQLLESGGGLVQPGGSLRLSCAASGFTFSSYAMHWVRQAPGKGLEWVSAISGSGGSTYYADSVKGRFTISRDNSKNTLYLQMNSLRAEDTAVYYCARGTRWWWGDAFDHWGQGTLVTVSS
VL: QSVLTQPPSVSVAPGKTARITCGGNNIGSKSVHWYQQKPGQAPVLVIYYDSDRPSGIPERFSGSNSGNTATLTISRVEAGDEADYYCQVWDSSTAWVFGGGTKLTVL
B9: P5A3 (scFv format) (scFv, part only; not given: linker, domain order, tags, V domains shown, not shown: another chain or arm of the molecule; small tags and cut ends)
VH: QVQLVQSGAEVKKPGSSVKVSCKASGGTFSSYYIGWVRQAPGQGLEWMGGIIPWFGTANYAQKFQGRVTITADKSTNTAYMELSSLRSEDTAVYYCAADHHDSPSGYTSGGFDVWGQGTLVTVSS
VL: QSALTQPASVSGSPGQSITISCTGTSSDVGGYNYVSWYQQHPGKAPKLMIYEVSKRPSGVPDRFSGSKSGNTASLTVSGLQAEDEADYYCSSYAGSNTVVFGGGTKLTVL

biological target: human FLT3 (hFLT3) (human) (UniProt P36888); assay: SPR, Table 6, scFv format; set-up and antigen species not described
Sequence (P36888 27-543 limits assumed): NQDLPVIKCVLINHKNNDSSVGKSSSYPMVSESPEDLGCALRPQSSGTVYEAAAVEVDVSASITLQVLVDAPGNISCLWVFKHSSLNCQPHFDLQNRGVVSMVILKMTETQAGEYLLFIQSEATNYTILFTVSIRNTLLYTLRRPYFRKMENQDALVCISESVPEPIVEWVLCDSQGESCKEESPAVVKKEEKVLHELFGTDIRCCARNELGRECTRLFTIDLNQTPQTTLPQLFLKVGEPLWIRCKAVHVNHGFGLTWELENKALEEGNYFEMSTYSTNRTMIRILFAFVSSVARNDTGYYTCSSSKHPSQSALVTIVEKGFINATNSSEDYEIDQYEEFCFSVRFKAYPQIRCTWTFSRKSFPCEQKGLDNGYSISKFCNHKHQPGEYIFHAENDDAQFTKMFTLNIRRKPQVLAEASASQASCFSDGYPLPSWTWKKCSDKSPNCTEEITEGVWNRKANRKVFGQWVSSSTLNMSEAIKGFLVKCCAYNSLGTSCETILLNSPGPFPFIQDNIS

Row | Kd | koff | kon | t1/2 | Binder
1 | 58.3 nM | 0.00933 s⁻¹ | 160000 M⁻¹ s⁻¹ | 1 min | B1
2 | 13.6 nM | 0.00164 s⁻¹ | 121000 M⁻¹ s⁻¹ | 7 min | B2
3 | 27.3 nM | 0.00327 s⁻¹ | 120000 M⁻¹ s⁻¹ | 3.5 min | B3
4 | 1.1 nM | 0.000292 s⁻¹ | 259000 M⁻¹ s⁻¹ | 40 min | B4
5 | 65.1 nM | 0.0112 s⁻¹ | 172000 M⁻¹ s⁻¹ | 1 min | B5
6 | 126 nM | 0.0286 s⁻¹ | 226000 M⁻¹ s⁻¹ | 0.4 min | B6
7 | 1 nM | 0.000197 s⁻¹ | 189000 M⁻¹ s⁻¹ | 59 min | B7
8 | 9.1 nM | 0.00187 s⁻¹ | 205000 M⁻¹ s⁻¹ | 6.2 min | B8
9 | 216 nM | 0.0175 s⁻¹ | 81000 M⁻¹ s⁻¹ | 0.7 min | B9
